According to US20180009871A1 (INTARCIA THERAPEUTICS, published 2018):
Where no end group is shown, it is not given here. [ ]: non-standard residue; d: D form. Aib = CC(C)(N)C(=O)O

B1: Compound A48 (peptide)
peptide: YSHGTFTSDYSKYLD[Aib]KRAQEFV[Aib]WLEDEKRNKNPPPS-OH
modifications: N-terminus assumed
SMILES: CC(C)C[C@H](NC(=O)[C@H](Cc1ccc(O)cc1)NC(=O)[C@H](CCCCN)NC(=O)[C@H](CO)NC(=O)[C@H](Cc1ccc(O)cc1)NC(=O)[C@H](CC(=O)O)NC(=O)[C@H](CO)NC(=O)[C@@H](NC(=O)[C@H](Cc1ccccc1)NC(=O)[C@@H](NC(=O)CNC(=O)[C@H](Cc1c[nH]cn1)NC(=O)[C@H](CO)NC(=O)[C@@H](N)Cc1ccc(O)cc1)[C@@H](C)O)[C@@H](C)O)C(=O)N[C@@H](CC(=O)O)C(=O)NC(C)(C)C(=O)N[C@@H](CCCCN)C(=O)N[C@@H](CCCNC(=N)N)C(=O)N[C@@H](C)C(=O)N[C@@H](CCC(N)=O)C(=O)N[C@@H](CCC(=O)O)C(=O)N[C@@H](Cc1ccccc1)C(=O)N[C@H](C(=O)NC(C)(C)C(=O)N[C@@H](Cc1c[nH]c2ccccc12)C(=O)N[C@@H](CC(C)C)C(=O)N[C@@H](CCC(=O)O)C(=O)N[C@@H](CC(=O)O)C(=O)N[C@@H](CCC(=O)O)C(=O)N[C@@H](CCCCN)C(=O)N[C@@H](CCCNC(=N)N)C(=O)N[C@@H](CC(N)=O)C(=O)N[C@@H](CCCCN)C(=O)N[C@@H](CC(N)=O)C(=O)N1CCC[C@H]1C(=O)N1CCC[C@H]1C(=O)N1CCC[C@H]1C(=O)N[C@@H](CO)C(=O)O)C(C)C
B2: Compound A45 (peptide)
peptide: YSHGTFTSDYSKYLD[Aib]KRAQEFV[Aib]WLEDEKRNKPPPA-OH
modifications: N-terminus assumed
SMILES: CC(C)C[C@H](NC(=O)[C@H](Cc1ccc(O)cc1)NC(=O)[C@H](CCCCN)NC(=O)[C@H](CO)NC(=O)[C@H](Cc1ccc(O)cc1)NC(=O)[C@H](CC(=O)O)NC(=O)[C@H](CO)NC(=O)[C@@H](NC(=O)[C@H](Cc1ccccc1)NC(=O)[C@@H](NC(=O)CNC(=O)[C@H](Cc1c[nH]cn1)NC(=O)[C@H](CO)NC(=O)[C@@H](N)Cc1ccc(O)cc1)[C@@H](C)O)[C@@H](C)O)C(=O)N[C@@H](CC(=O)O)C(=O)NC(C)(C)C(=O)N[C@@H](CCCCN)C(=O)N[C@@H](CCCNC(=N)N)C(=O)N[C@@H](C)C(=O)N[C@@H](CCC(N)=O)C(=O)N[C@@H](CCC(=O)O)C(=O)N[C@@H](Cc1ccccc1)C(=O)N[C@H](C(=O)NC(C)(C)C(=O)N[C@@H](Cc1c[nH]c2ccccc12)C(=O)N[C@@H](CC(C)C)C(=O)N[C@@H](CCC(=O)O)C(=O)N[C@@H](CC(=O)O)C(=O)N[C@@H](CCC(=O)O)C(=O)N[C@@H](CCCCN)C(=O)N[C@@H](CCCNC(=N)N)C(=O)N[C@@H](CC(N)=O)C(=O)N[C@@H](CCCCN)C(=O)N1CCC[C@H]1C(=O)N1CCC[C@H]1C(=O)N1CCC[C@H]1C(=O)N[C@@H](C)C(=O)O)C(C)C
B3: Compound A46 (peptide)
peptide: YSHGTFTSDYSKYLD[Aib]KRAQEFV[Aib]WLEDEKRNKPPIA-OH
modifications: N-terminus assumed
SMILES: CC[C@H](C)[C@H](NC(=O)[C@@H]1CCCN1C(=O)[C@@H]1CCCN1C(=O)[C@H](CCCCN)NC(=O)[C@H](CC(N)=O)NC(=O)[C@H](CCCNC(=N)N)NC(=O)[C@H](CCCCN)NC(=O)[C@H](CCC(=O)O)NC(=O)[C@H](CC(=O)O)NC(=O)[C@H](CCC(=O)O)NC(=O)[C@H](CC(C)C)NC(=O)[C@H](Cc1c[nH]c2ccccc12)NC(=O)C(C)(C)NC(=O)[C@@H](NC(=O)[C@H](Cc1ccccc1)NC(=O)[C@H](CCC(=O)O)NC(=O)[C@H](CCC(N)=O)NC(=O)[C@H](C)NC(=O)[C@H](CCCNC(=N)N)NC(=O)[C@H](CCCCN)NC(=O)C(C)(C)NC(=O)[C@H](CC(=O)O)NC(=O)[C@H](CC(C)C)NC(=O)[C@H](Cc1ccc(O)cc1)NC(=O)[C@H](CCCCN)NC(=O)[C@H](CO)NC(=O)[C@H](Cc1ccc(O)cc1)NC(=O)[C@H](CC(=O)O)NC(=O)[C@H](CO)NC(=O)[C@@H](NC(=O)[C@H](Cc1ccccc1)NC(=O)[C@@H](NC(=O)CNC(=O)[C@H](Cc1c[nH]cn1)NC(=O)[C@H](CO)NC(=O)[C@@H](N)Cc1ccc(O)cc1)[C@@H](C)O)[C@@H](C)O)C(C)C)C(=O)N[C@@H](C)C(=O)O
B4: Compound A47 (peptide)
peptide: YSHGTFTSDYSKYLD[Aib]KRAQEFV[Aib]WLEDEKRNKNPPS-OH
modifications: N-terminus assumed
SMILES: CC(C)C[C@H](NC(=O)[C@H](Cc1ccc(O)cc1)NC(=O)[C@H](CCCCN)NC(=O)[C@H](CO)NC(=O)[C@H](Cc1ccc(O)cc1)NC(=O)[C@H](CC(=O)O)NC(=O)[C@H](CO)NC(=O)[C@@H](NC(=O)[C@H](Cc1ccccc1)NC(=O)[C@@H](NC(=O)CNC(=O)[C@H](Cc1c[nH]cn1)NC(=O)[C@H](CO)NC(=O)[C@@H](N)Cc1ccc(O)cc1)[C@@H](C)O)[C@@H](C)O)C(=O)N[C@@H](CC(=O)O)C(=O)NC(C)(C)C(=O)N[C@@H](CCCCN)C(=O)N[C@@H](CCCNC(=N)N)C(=O)N[C@@H](C)C(=O)N[C@@H](CCC(N)=O)C(=O)N[C@@H](CCC(=O)O)C(=O)N[C@@H](Cc1ccccc1)C(=O)N[C@H](C(=O)NC(C)(C)C(=O)N[C@@H](Cc1c[nH]c2ccccc12)C(=O)N[C@@H](CC(C)C)C(=O)N[C@@H](CCC(=O)O)C(=O)N[C@@H](CC(=O)O)C(=O)N[C@@H](CCC(=O)O)C(=O)N[C@@H](CCCCN)C(=O)N[C@@H](CCCNC(=N)N)C(=O)N[C@@H](CC(N)=O)C(=O)N[C@@H](CCCCN)C(=O)N[C@@H](CC(N)=O)C(=O)N1CCC[C@H]1C(=O)N1CCC[C@H]1C(=O)N[C@@H](CO)C(=O)O)C(C)C
B5: Compound A49 (peptide)
peptide: YSHGTFTSDYSKYLD[Aib]KRAQEFV[Aib]WLEDEPRNKNNPPS-OH
modifications: N-terminus assumed
SMILES: CC(C)C[C@H](NC(=O)[C@H](Cc1ccc(O)cc1)NC(=O)[C@H](CCCCN)NC(=O)[C@H](CO)NC(=O)[C@H](Cc1ccc(O)cc1)NC(=O)[C@H](CC(=O)O)NC(=O)[C@H](CO)NC(=O)[C@@H](NC(=O)[C@H](Cc1ccccc1)NC(=O)[C@@H](NC(=O)CNC(=O)[C@H](Cc1c[nH]cn1)NC(=O)[C@H](CO)NC(=O)[C@@H](N)Cc1ccc(O)cc1)[C@@H](C)O)[C@@H](C)O)C(=O)N[C@@H](CC(=O)O)C(=O)NC(C)(C)C(=O)N[C@@H](CCCCN)C(=O)N[C@@H](CCCNC(=N)N)C(=O)N[C@@H](C)C(=O)N[C@@H](CCC(N)=O)C(=O)N[C@@H](CCC(=O)O)C(=O)N[C@@H](Cc1ccccc1)C(=O)N[C@H](C(=O)NC(C)(C)C(=O)N[C@@H](Cc1c[nH]c2ccccc12)C(=O)N[C@@H](CC(C)C)C(=O)N[C@@H](CCC(=O)O)C(=O)N[C@@H](CC(=O)O)C(=O)N[C@@H](CCC(=O)O)C(=O)N1CCC[C@H]1C(=O)N[C@@H](CCCNC(=N)N)C(=O)N[C@@H](CC(N)=O)C(=O)N[C@@H](CCCCN)C(=O)N[C@@H](CC(N)=O)C(=O)N[C@@H](CC(N)=O)C(=O)N1CCC[C@H]1C(=O)N1CCC[C@H]1C(=O)N[C@@H](CO)C(=O)O)C(C)C

Each binder was assayed against human GLP-1 receptor (GLP-1R) (human, UniProt P43220 24-463) (assay: cell-based or functional assay).
Sequence of human GLP-1 receptor (GLP-1R) (P43220 24-463): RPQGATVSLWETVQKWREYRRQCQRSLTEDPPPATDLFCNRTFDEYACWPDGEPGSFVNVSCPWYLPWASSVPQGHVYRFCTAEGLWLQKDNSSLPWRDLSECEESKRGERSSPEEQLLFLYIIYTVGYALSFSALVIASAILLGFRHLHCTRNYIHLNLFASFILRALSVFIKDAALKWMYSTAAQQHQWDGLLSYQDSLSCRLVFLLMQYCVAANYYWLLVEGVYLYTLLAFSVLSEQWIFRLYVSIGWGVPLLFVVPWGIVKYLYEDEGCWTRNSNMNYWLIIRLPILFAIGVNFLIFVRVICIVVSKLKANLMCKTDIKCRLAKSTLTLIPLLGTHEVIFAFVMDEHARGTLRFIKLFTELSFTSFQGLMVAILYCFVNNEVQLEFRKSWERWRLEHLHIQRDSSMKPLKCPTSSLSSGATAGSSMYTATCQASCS

Row | Binder | hGLP1 pEC50 (cAMP)
1 | B1 | < 9 pEC50
2 | B2 | < 9 pEC50
3 | B3 | < 9 pEC50
4 | B4 | < 9 pEC50
5 | B5 | < 9 pEC50

Each binder was assayed against human glucagon receptor (GCGR) (human, UniProt P47871 26-477) (assay: cell-based or functional assay).

Row | Binder | hGCGR pEC50 (cAMP)
6 | B1 | 12.9 pEC50
7 | B2 | 11.7 pEC50
8 | B3 | 12.5 pEC50
9 | B4 | 11.5 pEC50
10 | B5 | 12.4 pEC50
